In publication PMC3024981, “It Takes Two to Tango: Defining an Essential Second Active Site in Pyridoxal 5′-Phosphate Synthase” (PLoS ONE, 2011):
Substitutions are numbered along the chain they refer to. Numbers in names are those of the source. Where “and” joins values, the source holds several entries; their conditions need not be identical. Identical values can stand only once.

T1: Pdx1 R288K (Bacillus subtilis), native (untagged) (Bacillus subtilis, UniProt P37527 1-294, R288K)
T1 construct: Pdx1, synthase subunit of PLP synthase, Bacillus subtilis; also called Pdx1 R288K mutein; source: site directed mutagenesis of Pdx1; expressed and purified as described by Raschle et al. (2005)
T1 sequence: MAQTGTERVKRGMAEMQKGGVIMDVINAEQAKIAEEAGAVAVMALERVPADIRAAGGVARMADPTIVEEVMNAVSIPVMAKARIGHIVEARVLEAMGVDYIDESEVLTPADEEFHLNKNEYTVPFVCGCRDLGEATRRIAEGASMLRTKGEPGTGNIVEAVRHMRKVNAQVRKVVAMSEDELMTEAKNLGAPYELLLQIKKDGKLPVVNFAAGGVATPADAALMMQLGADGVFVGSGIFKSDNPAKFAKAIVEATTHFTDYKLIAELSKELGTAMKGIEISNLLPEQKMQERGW

B1: PLP synthase (Pdx1 + Pdx2), native Pdx1 (Bacillus subtilis subsp. subtilis str. 168) (protein)
chain: AQTGTERVKRGMAEMQKGGVIMDVINAEQAKIAEEAGAVAVMALERVPADIRAAGGVARMADPTIVEEVMNAVSIPVMAKARIGHIVEARVLEAMGVDYIDESEVLTPADEEFHLNKNEYTVPFVCGCRDLGEATRRIAEGASMLRTKGEPGTGNIVEAVRHMRKVNAQVRKVVAMSEDELMTEAKNLGAPYELLLQIKKDGKLPVVNFAAGGVATPADAALMMQLGADGVFVGSGIFKSDNPAKFAKAIVEATTHFTDYKLIAELSKELGTAMKGIEISNLLPEQRMQERGW
notes: complex of untagged Pdx1 with Pdx2; 24-subunit complex; with Pyridoxal 5'-phosphate synthase subunit PdxT
B2: PLP synthase (Pdx1-His6 + Pdx2) (Bacillus subtilis subsp. subtilis str. 168; E105D) (protein)
chain: B1 chain with E104D
notes: complex of C-terminally hexahistidine-tagged Pdx1 with Pdx2-His6; with Pyridoxal 5'-phosphate synthase subunit PdxT
B3: PLP synthase (Pdx1-His6 + Pdx2) (Bacillus subtilis subsp. subtilis str. 168; H115A/R138A) (protein)
chain: B1 chain with H114A, R137A
notes: as for B2
B4: PLP synthase (Pdx1-His6 + Pdx2) (Bacillus subtilis subsp. subtilis str. 168; K187A) (protein)
chain: B1 chain with K186A
notes: as for B2
B5: PLP synthase (Pdx1-His6 + Pdx2) (Bacillus subtilis subsp. subtilis str. 168; R138A) (protein)
chain: B1 chain with R137A
notes: as for B2
B6: PLP synthase (Pdx1-His6 + Pdx2) (Bacillus subtilis subsp. subtilis str. 168) (protein)
chain: B1 chain
notes: as for B2
B7: PLP synthase (Pdx1-His6 + Pdx2) (Bacillus subtilis subsp. subtilis str. 168; H115A) (protein)
chain: B1 chain with H114A
notes: as for B2
B8: Pdx1 wild type (Bacillus subtilis), native (untagged) (enzyme)
chain: T1 sequence with K288R
notes: Pdx1, synthase subunit of PLP synthase, Bacillus subtilis; construct pETBsPdx1 of Raschle et al. (2005); Native means untagged; Dodecamer by SEC-MALS; also called BsPdx1 wild type; PLP synthase synthase subunit; source: construct pETBsPdx1; expressed and purified as described by Raschle et al. (2005); copies: 12
B9: Pdx1 R288A (Bacillus subtilis), native (untagged) (enzyme)
chain: T1 sequence with K288A
notes: Pdx1, synthase subunit of PLP synthase, Bacillus subtilis; also called Pdx1 R288A mutein; source: site directed mutagenesis of Pdx1; expressed and purified as described by Raschle et al. (2005); copies: 12
B10: Pdx1 K187A (Bacillus subtilis), hexahistidine tagged (enzyme)
chain: T1 sequence with K187A, K288R
notes: Pdx1, synthase subunit of PLP synthase, Bacillus subtilis; parent construct pETBsPdx1-His6 of Strohmeier et al. (2006); It is in a dodecamer:hexamer equilibrium by SEC-MALS; also called Pdx1 K187A mutein; source: site directed mutagenesis of Pdx1; expressed and purified as described by Raschle et al. (2005); not shown: His6, C-terminal, kept
B11: Pdx2 (glutaminase, activated by Pdx1) (Bacillus subtilis subsp. subtilis str. 168) (protein)
chain: MLTIGVLGLQGAVREHIHAIEACGAAGLVVKRPEQLNEVDGLILPGGESTTMRRLIDTYQFMEPLREFAAQGKPMFGTCAGLIILAKEIAGSDNPHLGLLNVVVERNSFGRQVDSFEADLTIKGLDEPFTGVFIRAPHILEAGENVEVLSEHNGRIVAAKQGQFLGCSFHPELTEDHRVTQLFVEMVEEYKQKALV
notes: Pdx2 with untagged wild-type Pdx1; with Pyridoxal 5'-phosphate synthase subunit PdxS
B12: Pdx2 H170N (Bacillus subtilis), catalytically inert mutein (enzyme, UniProt P37528 1-196, looked up)
chain: B11 chain with H170N
notes: Pdx2, glutaminase subunit of PLP synthase, Bacillus subtilis; It was used together with glutamine (Michaelis complex of Pdx2 H170N and glutamine); also called Pdx2-His6 H170N; Pdx2 H170N mutein; source: construct Pdx2-His6 H170N of Strohmeier et al. (2006); expressed and purified as described by Raschle et al. (2005)

Tests used:
Pdx1 = biological target: T2, Pdx1 (Bacillus subtilis, UniProt P37527); assay: ESI-MS (+[…] Da after NaBH4 reduction), tryptic peptide MALDI-TOF/TOF; format: biochemical; details: covalent Schiff base at K149 (P2 site); PLP made de novo from R5P, DL-G3P and ammonium sulfate
T2 construct: gene pdxS; full-length Pdx1 alone, native (untagged) from pETBsPdx1; dodecamer

purified protein = substrate: O=CC(O)COP(=O)(O)O; assay: purified protein; format: biochemical, Bacillus subtilis; details: R5P and glutamine as co-substrates, 50 mM Tris-Cl pH 7.5, 37°C
[1] = biological target: the molecule itself; assay: SEC-MALS; Superdex 200 10/300 GL, 100 µl at 1 mg/ml; 50 mM potassium phosphate pH 7.5, 50 mM potassium chloride, 0.01% sodium azide; miniDAWN TREOS; dodecamer to hexamers
[2] = substrate: NC(=O)CC[C@H](N)C(=O)O; assay: coupled glutaminase assay; format: biochemical, Bacillus subtilis; details: activated by wild-type Pdx1, 50 mM Tris-Cl pH 7.5, 37°C
From the text: coupled glutaminase assay on Pdx2 (glutaminase, activated by Pdx1)

[3] = biological target: T1, Pdx1 R288K (Bacillus subtilis), native …; assay: other fluorescence titration; intrinsic protein fluorescence of Pdx1 titrated with increasing concentrations of Pdx2 H170N in the presence of glutamine, without R5P; decrease in fluorescence intensity; done as described in ref. 21; details: both partners purified
[4] = biological target: B8; assay: as above; details: both partners purified
[5] = biological target: B9; assay: as above; details: both partners purified

Q: With Cc1ncc(COP(=O)(O)O)c(C=O)c1O [pyridoxal 5′-phosphate] as the molecule, how does the “ESI-MS (+231 Da after NaBH4 reduction), tryptic peptide MALDI-TOF/TOF” value (Pdx1) read?
A: The value was “demonstrate that PLP is covalently bound to Pdx1”.

Q: With B1 as the molecule, how does the Km (purified protein) read?
A: Its Km is 186 ± 17 µM.

Q: And the kcat (purified protein)?
A: Its kcat is 0.00055 ± 3.3e-05 s⁻¹.

Q: And the kcat/Km (purified protein)?
A: The kcat/Km was 2.95 M⁻¹ s⁻¹.

Q: Which results are given for B2?
A: Km (purified protein; His-tagged proteins): 249 ± 26 µM; kcat (purified protein; His-tagged proteins): 0.000233 ± 1.7e-05 s⁻¹; kcat/Km (purified protein; His-tagged proteins): 0.933 M⁻¹ s⁻¹

Q: Which Km (purified protein; His-tagged proteins) does the source give for B3 here?
A: Its Km is 307 ± 75 µM.

Q: And the kcat (purified protein; His-tagged proteins)?
A: Its kcat is 0.0001 ± 0 s⁻¹.

Q: What about the kcat/Km (purified protein; His-tagged proteins) of the same molecule?
A: Its kcat/Km is 0.333 M⁻¹ s⁻¹.

Q: With B4 as the molecule, how does the Km (purified protein; His-tagged proteins) read?
A: Its Km is 267 ± 18 µM.

Q: What about the kcat (purified protein; His-tagged proteins) of the same molecule?
A: The kcat was 0.0005 ± 1.7e-05 s⁻¹.

Q: What about the kcat/Km (purified protein; His-tagged proteins) of the same molecule?
A: The kcat/Km was 1.87 M⁻¹ s⁻¹.

Q: B5 was tested. Which Km (purified protein; His-tagged proteins) did it give?
A: Its Km is 262 ± 26 µM.

Q: And the kcat (purified protein; His-tagged proteins)?
A: The kcat was 0.0002 ± 1.7e-05 s⁻¹.

Q: And the kcat/Km (purified protein; His-tagged proteins)?
A: Its kcat/Km is 0.767 M⁻¹ s⁻¹.

Q: With B6 as the molecule, how does the Km (purified protein; His-tagged proteins) read?
A: The Km was 155 ± 23 µM.

Q: And the kcat (purified protein; His-tagged proteins)?
A: Its kcat is 0.0006 ± 8.3e-05 s⁻¹.

Q: What about the kcat/Km (purified protein; His-tagged proteins) of the same molecule?
A: Its kcat/Km is 3.87 M⁻¹ s⁻¹.

Q: For B7, which Km (purified protein; His-tagged proteins) is on record?
A: The Km was 229 ± 55 µM.

Q: And the kcat (purified protein; His-tagged proteins)?
A: Its kcat is 0.00013 ± 0 s⁻¹.

Q: What about the kcat/Km (purified protein; His-tagged proteins) of the same molecule?
A: Its kcat/Km is 0.583 M⁻¹ s⁻¹.

Q: How did the “stoichiometry N” value [1] turn out when B8 was run?
A: Its value is 12.

Q: How did the “stoichiometry N” value [1] turn out when B9 was run?
A: The value was 12.

Q: With B10 as the molecule, how does the “stoichiometry N” value [1] read?
A: The value was 12 and 6.

Q: B11 was tested. Which Km [2] did it give?
A: The Km was 1160 ± 180 µM.

Q: What about the kcat [2] of the same molecule?
A: Its kcat is 0.0295 ± 0.00133 s⁻¹.

Q: What about the kcat/Km [2] of the same molecule?
A: The kcat/Km was 25.5 M⁻¹ s⁻¹.

Q: Does B12 bind [3]?
A: Result: binds

Q: Does B12 bind [4]?
A: Result: binds

Q: Does B12 bind [5]?
A: Result: binds
